Reference: US20250154240A1 (CHIOME BIOSCIENCE, published 2025)
Residue numbers refer to the chain shown, from its start.

Key:
human CXCL3 = biological target: T1, human CXCL3 (human, UniProt P19876 35-107, limits assumed); assay: blocking ELISA: HuCXCL3 immobilised, antibody 0 to 10 µg/mL, then biotin-labeled heparin 10 µg/mL (blocked ligand: heparin); panel HuCXCL3
T1 construct: also called HuCXCL3
T1 sequence (looked up): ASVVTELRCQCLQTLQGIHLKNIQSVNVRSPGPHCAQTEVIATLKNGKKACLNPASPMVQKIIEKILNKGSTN
Method: (§1) Thus, the effect of Hu5A-5E11 on the binding of CXCLs to GAG was evaluated by ELISA assay using plates on which the antigen (HuCXCL1 protein) used for immunization or HuCXCL2, 3 and 5 and MsCXCL1 and 2 proteins had been directly immobilized. CXCLs other than HuCXCL1 were purchased from PROTEINTECH and used. Biotin-labeled heparan sulfate and heparin were purchased from PG Research and used.
(§2) To 96-well plates, phosphate-buffered saline (PBS) containing 3 μg/mL of HuCXCL1, 2, 3 or 5 or MsCXCL1 or 10 μg/mL of MsCXCL2 was added in a volume of 50 μL per well, and the plates were allowed to stand overnight at 4° C. After removal of the antigen solutions, PBS containing 0.05% Tween-20 (hereinafter referred to as the blocking solution) was added to each well for blocking reaction, and the plates were allowed to stand at room temperature for 30 minutes. […] TMB (Dako) was added as a chromogenic substrate solution to cause color development, and 1 N sulfuric acid was added to stop the reaction, followed by measurement of absorbance at 450 nm. The binding rate of CXCLs to GAG was calculated as a ratio relative to the absorbance measured in the absence of the antibody, which was set to 100%.

human CXCL1 protein [1] = biological target: T2, human CXCL1 protein (human, UniProt P09341 35-107); assay: blocking ELISA: HuCXCL1 immobilised, antibody 0 to 10 µg/mL, then biotin-labeled heparin 10 µg/mL (blocked ligand: heparin); panel HuCXCL1
T2 construct: also called HuCXCL1
T2 sequence: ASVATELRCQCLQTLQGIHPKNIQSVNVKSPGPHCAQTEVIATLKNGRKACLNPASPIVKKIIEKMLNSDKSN
Method: as §1, §2

human CXCL1 protein [2] = biological target: T2, human CXCL1 protein; assay: antigen-immobilized ELISA, HuCXCL1 on the plate, absorbance (lower left panel)
human CXCL2 = biological target: T3, human CXCL2 (human, UniProt P19875 35-107, limits assumed); assay: blocking ELISA: HuCXCL2 immobilised, antibody 0 to 10 µg/mL, then biotin-labeled heparan sulfate 10 µg/mL (blocked ligand: heparan sulfate); panel HuCXCL2
T3 construct: also called HuCXCL2
T3 sequence (looked up): T2 sequence with S2P, V3L, P20L, N27K, R48Q, I58M, N68K, S69N, D70G
Method: as §1, §2

mouse CXCL1 = biological target: T4, mouse CXCL1 (mouse, UniProt P12850 25-96, limits assumed); assay: blocking ELISA: MsCXCL1 immobilised, antibody 0 to 10 µg/mL, then biotin-labeled heparin 10 µg/mL (blocked ligand: heparin); panel MsCXCL1
T4 construct: also called MsCXCL1
T4 sequence (looked up): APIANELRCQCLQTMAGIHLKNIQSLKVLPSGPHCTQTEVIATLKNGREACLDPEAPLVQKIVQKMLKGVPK
Method: as §1, §2

human CXCL5 = biological target: T5, human CXCL5 (human, UniProt P42830 37-114, limits assumed); assay: blocking ELISA: HuCXCL5 immobilised, antibody 0 to 10 µg/mL, then biotin-labeled heparin 10 µg/mL (blocked ligand: heparin); panel HuCXCL5
T5 construct: also called HuCXCL5
T5 sequence (looked up): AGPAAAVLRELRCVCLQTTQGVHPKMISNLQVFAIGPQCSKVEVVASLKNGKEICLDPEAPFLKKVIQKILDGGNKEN
Method: as §1, §2

IC50 (read off the curve) (human CXCL3): ~0.5 mg/L | IC50 (read off the curve) (human CXCL1 protein [1]): ~0.6 mg/L | EC50 (read off the curve) (human CXCL1 protein [2]): ~0.02 mg/L | IC50 (read off the curve) (human CXCL2): ~0.8 mg/L | IC50 (read off the curve) (mouse CXCL1): ~0.6 mg/L | binding result (human CXCL5): binds
B1: Hu5A-5E11 VH1/VL1 (antibody, V domains shown)
VH: QVQLVQSGAEVKKPGSSVKVSCKASGYAFSDYWMNWVRQAPGQGLEWIGQIYPGSGDTNYNAKFKGKGTITADKSTSTAYMELSSLRSEDTAVYYCARERDYDVAMDYWGQGTTVTVSS
VL: DIQMTQSPSSLSASVGDRVTITCKASQDINKYIAWFQQKPGKAPKLVIHYTSILQPGVPSRFSGSGSGTDYTFTISSLQPEDIATYYCLQYDNLPWTFGGGTKVEIK
notes: also called humanized Hu5A-5E11
